Test results reported in publication PMC10937788 (Plant Molecular Biology, 2024).
Blank lines part the entries; values can stand above or below the molecule they belong to.

Legend:
SyArgG = biological target: T1, SyArgG (Synechocystis sp. PCC 6803, UniProt P77973); assay: coupled NADH oxidation assay (myokinase, pyruvate kinase, lactate dehydrogenase), […] nm; assay type: biochemical; settings: read-out: % residual activity at 5 mM
T1 construct: gene argG; synthetic ORF in pGEX-6P-1 (BamHI-XhoI); GST-tagged, tag kept (eluted with glutathione, no cleavage described); expressed in E. coli BL21(DE3)
T1 sequence (P77973 1-400): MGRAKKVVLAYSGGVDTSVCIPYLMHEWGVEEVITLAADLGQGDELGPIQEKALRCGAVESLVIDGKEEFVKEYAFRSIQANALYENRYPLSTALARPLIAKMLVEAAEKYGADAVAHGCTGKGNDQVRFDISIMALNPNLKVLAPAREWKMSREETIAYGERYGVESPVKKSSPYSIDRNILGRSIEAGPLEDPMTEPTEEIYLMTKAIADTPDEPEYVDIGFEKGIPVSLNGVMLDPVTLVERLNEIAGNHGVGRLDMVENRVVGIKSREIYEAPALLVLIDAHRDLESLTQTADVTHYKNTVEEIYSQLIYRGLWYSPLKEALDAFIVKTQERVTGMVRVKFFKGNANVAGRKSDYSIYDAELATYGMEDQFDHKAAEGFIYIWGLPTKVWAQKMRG

purified protein [1] = substrate: N[C@@H](CC(=O)O)C(=O)O; assay: purified protein; settings: 38 °C, pH 9.0 Tris-HCl, 5 mM MgCl2, 2 mM KCl, co-substrates 7.5 mM citrulline, 1 mM ATP
purified protein [2] = substrate: NC(=O)NCCC[C@H](N)C(=O)O; assay: purified protein; assay type: biochemical, Synechocystis sp. PCC 6803; settings: 38 °C, pH 9.0 Tris-HCl, 5 mM MgCl2, 2 mM KCl, co-substrates 7.5 mM aspartate, 1 mM ATP
purified protein [3] = substrate: Nc1ncnc2c1ncn2[C@@H]1O[C@H](COP(=O)(O)OP(=O)(O)OP(=O)(O)O)[C@@H](O)[C@H]1O; assay: purified protein; assay type: biochemical, Synechocystis sp. PCC 6803; settings: 38 °C, pH 9.0 Tris-HCl, 5 mM MgCl2, 2 mM KCl, co-substrates 7.5 mM citrulline, 7.5 mM aspartate

Molecule: NCCCC[C@H](N)C(=O)O [lysin]
remaining activity at 5000 µM (SyArgG): 78.1%

Molecule: N=C(N)NCCC[C@H](N)C(=O)O [arginine]
remaining activity at 5000 µM (SyArgG): 18.4%

remaining activity at 5000 µM (SyArgG): 92.1%
Molecule: O=C(O)CCC(=O)O [succinate]

remaining activity at 5000 µM (SyArgG): 80.1%
Molecule: NCCC[C@H](N)C(=O)O [ornithine]

B1: SyArgG (Synechocystis sp. PCC 6803 substr. Kazusa) (protein)
chain: MGRAKKVVLAYSGGVDTSVCIPYLMHEWGVEEVITLAADLGQGDELGPIQEKALRCGAVESLVIDGKEEFVKEYAFRSIQANALYENRYPLSTALARPLIAKMLVEAAEKYGADAVAHGCTGKGNDQVRFDISIMALNPNLKVLAPAREWKMSREETIAYGERYGVESPVKKSSPYSIDRNILGRSIEAGPLEDPMTEPTEEIYLMTKAIADTPDEPEYVDIGFEKGIPVSLNGVMLDPVTLVERLNEIAGNHGVGRLDMVENRVVGIKSREIYEAPALLVLIDAHRDLESLTQTADVTHYKNTVEEIYSQLIYRGLWYSPLKEALDAFIVKTQERVTGMVRVKFFKGNANVAGRKSDYSIYDAELATYGMEDQFDHKAAEGFIYIWGLPTKVWAQKMRG
notes: synthetic ORF in pGEX-6P-1 (BamHI-XhoI); GST-tagged, tag kept (eluted with glutathione, no cleavage described); expressed in E. coli BL21(DE3)
Km (purified protein [1]): 360 ± 40 µM
kcat (purified protein [1]): 0.77 s⁻¹
kcat/Km (purified protein [1]): 2160 M⁻¹ s⁻¹
Km (purified protein [2]): 350 ± 10 µM
kcat (purified protein [2]): 0.69 ± 0.01 s⁻¹
kcat/Km (purified protein [2]): 1970 ± 50 M⁻¹ s⁻¹
Km (purified protein [3]): 260 ± 10 µM
kcat (purified protein [3]): 0.7 ± 0.002 s⁻¹
kcat/Km (purified protein [3]): 2750 ± 120 M⁻¹ s⁻¹
